Substrate in data set [1]: C=C(C)C(=O)SCCNC(=O)CCNC(=O)[C@H](O)C(C)(C)COP(=O)(O)OP(=O)(O)OC[C@H]1O[C@@H](n2cnc3c(N)ncnc32)[C@H](O)[C@@H]1OP(=O)(O)O
The data set can be described thus: Kinetic characterisation of purified carboxy-terminal hexahistidine tagged 4HBT (thioester hydrolysis, DTNB). The format is biochemical. Particulars: other: substrate of purified CtHis-4HBT (0.075 mg/ml for methacrylyl-CoA, 1 mg/ml for isobutyryl-CoA), DTNB 0.5 mM, Lineweaver-Burke plot; 18.0 °C. Here is the method:
(§1) Pure carboxy-terminal His-tagged 4HBT enzyme was then prepared by first growing cultures of E. coli BL21 (DE3) pLysS pET20b(+)::CtHis-4HBT and inducing expression in the exact same manner as was performed for E. coli BL21 (DE3) pLysS pET20b(+)::4HBT. […] Cells were harvested by splitting the cell culture into three centrifuge tubes and centrifuging at 5000 g for 20 min at 4° C. Cell pellets were not washed though, and were instead directly stored at −80° C. A cell free extract of carboxy-terminal hexahistidine tagged 4HBT was prepared by re-suspending one of the E. coli BL21 (DE3) pLysS pET20b(+)::CtHis-4HBT cell pellets in binding buffer (6 ml) for a Nickel-sepharose FPLC column. Binding buffer consisted of NaH2PO4 (10 mM), Na2HPO4 (10 mM), NaCl (500 mM), imidazole (30 mM) and was adjusted to pH 7.4 with HCl. Benzonase® nuclease (0.6 μl) was added to the re-suspended cells before they were lysed in the Constant Systems One Shot cell disrupter. The cell lysate was then clarified by centrifugation at 18,000 g for 15 min at 4° C., followed by centrifugation of the supernatant at 57,750 g for 60 min at 4° C. This supernatant was then loaded onto a GE Healthcare HisTrap™ FF Crude column (1 ml) that was equilibrated with binding buffer. […] Protein elution was monitored at 280 nm and fractions were checked for the presence and purity of carboxy-terminal His-tagged 4HBT by SDS-PAGE. […] The latter dilution in potassium phosphate assay buffer and re-concentration was performed once more and the concentration of CtHIS-4HBT protein was determined by UV280 absorbance in a NanoDrop ND1000 spectrophotometer, using a molar extinction coefficient of 20970M^−1·cm^−1 and a molecular weight of 17516.5 mg·mmol^−1 for the carboxy-terminal His-tagged 4HBT enzyme. The values for the molar extinction coefficient and molecular weight were determined using the Expasy ProtParam tool, using the amino acid translation of the gene sequence encoding the carboxy-terminal his tagged 4HBT enzyme (SEQ. ID 5) in the pET20b(+)::CtHis-4HBT plasmid. […]
(§2) Methacrylyl-CoA hydrolysis reactions (200 μl) were performed in Nunc 96 well plates using purified CtHis-4HBT protein (0.075 mg·ml^−1) and DTNB (0.5 mM) to monitor the reaction. Initial rates were determined for methacrylyl-CoA starting concentrations of 0.375 mM, 0.3 mM, 0.225 mM, 0.15 mM and 0.075 mM. […]
(§3) Isobutyryl-CoA hydrolysis reactions (200 μl) were also performed in Nunc 96 well plates, using purified CtHIS-4HBT protein (1 mg·ml^−1) and DTNB (0.5 mM) to monitor the reaction. Initial rates were determined for isobutyryl-CoA starting concentrations of 0.5 mM, 0.4 mM, 0.3 mM, 0.2 mM and 0.1 mM. […]

Substrate in data set [2]: CC(C)C(=O)SCCNC(=O)CCNC(=O)[C@H](O)C(C)(C)COP(=O)(O)OP(=O)(O)OC[C@H]1O[C@@H](n2cnc3c(N)ncnc32)[C@H](O)[C@@H]1OP(=O)(O)O
Described as above. The settings on record: other: substrate of purified CtHis-4HBT (0.075 mg/ml for methacrylyl-CoA, 1 mg/ml for isobutyryl-CoA), DTNB 0.5 mM, Lineweaver-Burke plot; 18.0 °C. The format is biochemical. The method, then:
as §1, §2, §3

B1: 4-hydroxybenzoyl-CoA thioesterase (4HBT) (Arthrobacter sp.) (protein)
chain: MHRTSNGSHATGGNLPDVASHYPVAYEQTLDGTVGFVIDEMTPERATASVEVTDTLRQRWGLVHGGAYCALAEMLATEATVAVVHEKGMMAVGQSNHTSFFRPVKEGHVRAEAVRIHAGSTTWFWDVSLRDDAGRLCAVSSMSIAVRPRRDGLEHHHHHH
notes: made in house; host or cells: E. coli BL21 (DE3) pLysS pET20b(+)::CtHis-4HBT
As to B1, in data set [1], the Km came to 1.6 mM and the Vmax came to 470 nmols·mg^−1·min^−1. In data set [2], the Km is 3 mM and the Vmax is 16.7 nmols·mg^−1·min^−1.

For orientation: Km means the substrate concentration at which the rate is half of its maximum.

Source of the values: patent US11248243B2, “Process for the biological production of methacrylic acid and derivatives thereof” (MITSUBISHI CHEMICAL UK LIMITED, priority 2015, dated 2022).
